The record followed here is publication doi:10.1101/2023.06.09.544317.

This assay concerns the target tRNA pseudouridine synthase from archaea (Q8U2C1) (P. furiosus). As to the kind of experiment: mass photometry.

By stoichiometry N is commonly meant a count of units in the complex or per binding partner. Regarding “tRNA pseudouridine synthase from archaea (Q8U2C1) (enzyme)”, the stoichiometry N was determined as 2.
